Tests used:
[1] = molecular target: q3umu9-1, Q3UMU9-1
[2] = molecular target: q3umu9-3, Q3UMU9-3
[3] = molecular target: hdgr2_mouse Hdgfl2 (UniProt Q3UMU9)
hdgr2_mouse Hdgfl2, sequence (Q3UMU9 whole entry): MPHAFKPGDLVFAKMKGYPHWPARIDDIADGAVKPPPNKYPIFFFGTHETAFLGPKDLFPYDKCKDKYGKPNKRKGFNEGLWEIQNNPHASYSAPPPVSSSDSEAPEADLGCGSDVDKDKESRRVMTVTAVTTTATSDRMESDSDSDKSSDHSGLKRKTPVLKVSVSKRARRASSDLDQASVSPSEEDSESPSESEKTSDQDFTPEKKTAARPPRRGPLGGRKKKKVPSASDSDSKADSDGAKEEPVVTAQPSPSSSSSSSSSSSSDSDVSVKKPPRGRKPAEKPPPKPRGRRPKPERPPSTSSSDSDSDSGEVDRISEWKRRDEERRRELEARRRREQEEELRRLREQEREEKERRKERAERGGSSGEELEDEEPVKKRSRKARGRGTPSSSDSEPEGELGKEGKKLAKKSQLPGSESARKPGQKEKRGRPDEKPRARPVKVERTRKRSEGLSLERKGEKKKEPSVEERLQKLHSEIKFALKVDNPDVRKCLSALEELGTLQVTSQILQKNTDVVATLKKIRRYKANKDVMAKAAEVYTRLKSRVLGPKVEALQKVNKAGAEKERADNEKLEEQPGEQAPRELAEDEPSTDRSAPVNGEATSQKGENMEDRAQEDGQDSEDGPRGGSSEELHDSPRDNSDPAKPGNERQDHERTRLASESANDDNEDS

Hepatoma-derived growth factor (Mus musculus), P51859 S165A, sequence (P51859 whole entry S165A): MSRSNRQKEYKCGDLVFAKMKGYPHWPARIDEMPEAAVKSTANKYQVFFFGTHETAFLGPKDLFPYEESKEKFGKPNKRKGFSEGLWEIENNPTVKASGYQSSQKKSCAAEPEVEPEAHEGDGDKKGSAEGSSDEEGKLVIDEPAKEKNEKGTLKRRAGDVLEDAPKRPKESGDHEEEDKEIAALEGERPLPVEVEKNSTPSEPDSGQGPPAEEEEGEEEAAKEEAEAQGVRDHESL
q3umu9-1, Q3UMU9-1, sequence (Q3UMU9 whole entry): as the sequence (Q3UMU9 whole entry) above
q3umu9-3, Q3UMU9-3, sequence (Q3UMU9 other isoform, or with tags, fused parts or gaps): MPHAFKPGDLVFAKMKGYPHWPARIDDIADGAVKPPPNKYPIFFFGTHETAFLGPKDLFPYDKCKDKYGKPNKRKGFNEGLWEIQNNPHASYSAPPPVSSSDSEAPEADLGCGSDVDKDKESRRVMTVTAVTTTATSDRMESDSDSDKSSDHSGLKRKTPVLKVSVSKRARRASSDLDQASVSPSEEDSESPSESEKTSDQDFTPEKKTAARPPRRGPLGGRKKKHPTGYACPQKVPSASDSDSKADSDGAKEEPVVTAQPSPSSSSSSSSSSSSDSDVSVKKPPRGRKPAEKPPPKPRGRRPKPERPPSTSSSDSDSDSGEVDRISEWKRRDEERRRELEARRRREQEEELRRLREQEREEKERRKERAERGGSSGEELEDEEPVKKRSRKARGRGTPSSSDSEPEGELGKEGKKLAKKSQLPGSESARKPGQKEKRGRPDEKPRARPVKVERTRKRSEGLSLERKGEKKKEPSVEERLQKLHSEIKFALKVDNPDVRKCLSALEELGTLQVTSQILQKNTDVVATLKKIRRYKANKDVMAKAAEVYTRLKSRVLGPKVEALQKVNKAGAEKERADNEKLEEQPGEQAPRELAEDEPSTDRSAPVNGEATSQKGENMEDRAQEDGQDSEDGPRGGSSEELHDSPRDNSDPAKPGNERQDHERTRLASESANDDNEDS

effect of a mutation on the interaction [1]: increasing interaction
effect of a mutation on the interaction [2]: increasing interaction
effect of a mutation on the interaction [3]: increasing interaction
Substance: Hepatoma-derived growth factor (Mus musculus), P51859 S165A
